Measurements published in paper PMC8121907.

Legend:
[1] = target: activated Vip3Bc1 (Vip3Bc1^act), trypsin-digested Vip3Bc1 (Bacillus thuringiensis); test: cryo-EM structure; single particle cryoEM of trypsin-digested Vip3Bc1^act, tilted collection, C4 symmetry applied, global resolution 4.8 Å; model built by homology
[2] = target: Vip3Bc1 (wild type, full length, unprocessed) (Bacillus thuringiensis); test: SEC; Superose 6 increase 10/300 GL, 25 mM TrisHCl pH 7.5, 150 mM NaCl; undigested Vip3Bc1 loaded at 1 mg/mL
[3] = target: Vip3Bc1 (wild type, full length, unprocessed) (Bacillus thuringiensis); test: cryo-EM structure; single particle cryoEM of undigested Vip3Bc1, C2 symmetry applied, global resolution 3.9 Å

Substance | stoichiometry N [1] | stoichiometry N [2] | stoichiometry N [3]
activated Vip3Bc1 (Vip3Bc1^act), trypsin-digested Vip3Bc1 (complex) | 4 | – | –
Vip3Bc1 (wild type, full length, unprocessed) (natural protein) | – | 4 | 4
